Data from publication PMC10229650 (Nature Communications, 2023).

Molecular target: T1, recombinant, soluble murine Jagged1 (mouse, UniProt Q9QXX0)
T1 construct: Jagged1, mouse, recombinant soluble form; also called recombinant mouse Jagged1
Test: ELISA; plates coated with 500 ng/mL recombinant soluble murine Jagged1 in PBS; antibodies titrated 2000-15.63 ng/mL in PBSTM, 1.5 h at RT; detected with ALP-conjugated goat anti-murine Fc
Details: both partners purified

T1 sequence (Q9QXX0 34-1067): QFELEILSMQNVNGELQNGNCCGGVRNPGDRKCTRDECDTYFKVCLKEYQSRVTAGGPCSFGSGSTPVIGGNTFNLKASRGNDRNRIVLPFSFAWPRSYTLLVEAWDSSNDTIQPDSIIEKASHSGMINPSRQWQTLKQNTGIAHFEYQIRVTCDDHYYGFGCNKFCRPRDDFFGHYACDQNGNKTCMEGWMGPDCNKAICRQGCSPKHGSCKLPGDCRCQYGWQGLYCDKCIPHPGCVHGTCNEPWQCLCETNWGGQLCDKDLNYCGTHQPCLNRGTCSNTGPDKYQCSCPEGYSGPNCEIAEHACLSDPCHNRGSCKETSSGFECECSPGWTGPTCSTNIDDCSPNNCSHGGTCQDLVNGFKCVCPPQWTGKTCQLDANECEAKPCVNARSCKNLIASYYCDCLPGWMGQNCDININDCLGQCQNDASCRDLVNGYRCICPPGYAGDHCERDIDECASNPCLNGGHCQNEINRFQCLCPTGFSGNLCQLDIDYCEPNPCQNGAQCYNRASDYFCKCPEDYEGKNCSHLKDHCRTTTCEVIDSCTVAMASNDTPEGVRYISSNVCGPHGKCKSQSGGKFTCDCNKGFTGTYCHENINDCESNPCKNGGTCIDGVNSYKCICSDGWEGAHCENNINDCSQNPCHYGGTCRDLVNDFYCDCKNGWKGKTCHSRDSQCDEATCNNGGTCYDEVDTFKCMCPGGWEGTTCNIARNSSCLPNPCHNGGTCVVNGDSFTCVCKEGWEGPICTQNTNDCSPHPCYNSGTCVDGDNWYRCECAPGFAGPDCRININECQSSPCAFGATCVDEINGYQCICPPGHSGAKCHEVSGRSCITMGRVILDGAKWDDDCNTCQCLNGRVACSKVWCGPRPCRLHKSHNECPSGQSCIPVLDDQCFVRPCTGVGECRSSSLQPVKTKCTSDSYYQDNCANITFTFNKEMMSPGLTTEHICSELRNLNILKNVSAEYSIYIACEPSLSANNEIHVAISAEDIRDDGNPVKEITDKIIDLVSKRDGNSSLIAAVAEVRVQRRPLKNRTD

Row | Binder | binding result
1 | anti-JAG1.b70 mouse immunoglobulin G2a (mIgG2a), WT (antibody, V domains shown, variable heavy domain of anti-JAG1.b70; constant domains of the mouse IgG2a heavy chain, wild type; variable light domain of anti-JAG1.b70; constant domain of the murine kappa light chain; Phage-display selected antibody in mIgG2a format; A batch provided by Genentech was used in animals; WT and PGLALA variants for the ELISAs were produced in HEK293E; The constant domains of the Fab in PDB 5BO1 …) VH: EVQLVESGGGLVQPGGSLRLSCAASGFTFSNYGIHWVRQAPGKGLEWVGWITPDGGYTDYADSVKGRFTISADTSKNTAYLQMNSLRAEDTAVYYCARAGTLFAYWGQGTLVTVSS VL: DIQMTQSPSSLSASVGDRVTITCRASQDVSTAVAWYQQKPGKAPKLLIYSASFLYSGVPSRFSGSGSGTDFTLTISSLQPEDFATYYCQQYYTTATTFGQGTKVEIK | binds
2 | anti-JAG1.b70 mIgG2a, PGLALA (P329G, L234A, L235A) (antibody, V domains shown, variable heavy domain as in the heavy chain of m1; constant domains of the mouse IgG2a heavy chain with PGLALA in the CH2 domain; variable light domain as in the light chain of m1; constant domain of the murine kappa light chain; also called PGLALA-engineered anti-JAG1; effector-negative anti-JAG1; source: HEK293E, transient co-transfection, purified (anti-murine kLC CaptureSelect, SEC)) VH: EVQLVESGGGLVQPGGSLRLSCAASGFTFSNYGIHWVRQAPGKGLEWVGWITPDGGYTDYADSVKGRFTISADTSKNTAYLQMNSLRAEDTAVYYCARAGTLFAYWGQGTLVTVSS VL: DIQMTQSPSSLSASVGDRVTITCRASQDVSTAVAWYQQKPGKAPKLLIYSASFLYSGVPSRFSGSGSGTDFTLTISSLQPEDFATYYCQQYYTTATTFGQGTKVEIK | binds
